Consider five sequences from the supplement of paper PMC5998384.

The subject of series [1] is HeLa Kyoto. Briefly: solubility in G1/S (NP-40 vs SDS abundance) (log2 ratio); higher = more soluble. Particulars: cell cycle stage: G1/S.
Series [2] deals with HeLa Kyoto. The experiment in a line: melting temperature (median over replicates), in situ; higher = more thermally stable.
Series [3] concerns HeLa Kyoto. The experiment in a line: solubility change mitosis vs G1/S (difference of NP-40 vs SDS log2 ratios) (log2 ratio difference); higher = more soluble in mitosis.
Series [4] deals with HeLa Kyoto. The experiment in a line: thermal stability score vs G1/S (z-score of summed log2 fold changes over temperatures); higher = more thermally stable than in G1/S.
The mark [5] stands for this setting: cell cycle stage: early G1 (4.5 h after nocodazole release).
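Wherever melting temperature (median over replicates), in situ is given: HeLa Kyoto cells synchronized by double thymidine or nocodazole block, proteins quantified by TMT10plex mass spectrometry, three independent biological replicates.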
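Wherever solubility change mitosis vs G1/S (difference of NP-40 vs SDS log2 ratios) is given: synchronized HeLa Kyoto cells (double thymidine block for G1/S, nocodazole release for mitosis), protein amounts in NP-40 versus SDS lysates quantified by mass spectrometry, three biological replicates.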
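Wherever solubility in G1/S (NP-40 vs SDS abundance) is given: HeLa Kyoto cells arrested at G1/S by double thymidine block, proteins quantified by TMT10plex mass spectrometry in mild NP-40 versus SDS extracts, three biological replicates.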
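Wherever thermal stability score vs G1/S (z-score of summed log2 fold changes over temperatures) is given: synchronized HeLa Kyoto cells, proteins quantified by TMT10plex mass spectrometry, three biological replicates, mitosis taken 0.5 h after nocodazole release, G1/S directly after double thymidine block.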

As to “MIVQRVVLNSRPGKNGNPVAENFRMEEVYLPDNINEGQVQVRTLYLSVDPYMRCRMNEDTGTDYITPWQLSQVVDGGGIGIIEESKHTNLTKGDFVTSFYWPWQTKVILDGNSLEKVDPQLVDGHLSYFLGAIGMPGLTSLIGIQEKGHITAGSNKTMVVSGAAGACGSVAGQIGHFLGCSRVVGICGTHEKCILLTSELGFDAAINYKKDNVAEQLRESCPAGVDVYFDNVGGNISDTVISQMNENSHIILCGQISQYNKDVPYPPPLSPAIEAIQKERNITRERFLVLNYKDKFEPGILQLSQWFKEGKLKIKETVINGLENMGAAFQSMMTGGNIGKQIVCISEEISL [PTGR2]”, the “solubility in G1/S (log2)” value with HeLa Kyoto [1] stood at 0.0876. The melting temperature came out at 50.5 °C in the series on HeLa Kyoto [2] (cell cycle stage: G1/S) and 50.6 °C with HeLa Kyoto [2] (cell cycle stage: mitosis). Further, in the series on HeLa Kyoto [3], the “solubility change mitosis (log2)” value was -0.0529. Also, the thermal stability score with HeLa Kyoto [4] (setting [5]) is 0.0557; in the series on HeLa Kyoto [4] (cell cycle stage: mitosis), -0.682.

For the sequence “MKAVVQRVTRASVTVGGEQISAIGRGICVLLGISLEDTQKELEHMVRKILNLRVFEDESGKHWSKSVMDKQYEILCVSQFTLQCVLKGNKPDFHLAMPTEQAEGFYNSFLEQLRKTYRPELIKDGKFGAYMQVHIQNDGPVTIELESPAPGTATSDPKQLSKLEKQQQRKEKTRAKGPSESSKERNTPRKEDRSASSGAEGDVSSEREP [DTD1]”, the “solubility in G1/S (log2)” value with HeLa Kyoto [1] was 0.119. Further, the figures for the melting temperature in the series on HeLa Kyoto [2] (cell cycle stage: G1/S) and with HeLa Kyoto [2] (cell cycle stage: mitosis) were 58.3 °C and 57.5 °C, respectively. In the series with HeLa Kyoto [3], the “solubility change mitosis (log2)” value worked out at 0.00349. Also, the thermal stability score in the series on HeLa Kyoto [4] (setting [5]) is 2.15; with HeLa Kyoto [4] (cell cycle stage: mitosis), 0.509.

Take “MKFAEHLSAHITPEWRKQYIQYEAFKDMLYSAQDQAPSVEVTDEDTVKRYFAKFEEKFFQTCEKELAKINTFYSEKLAEAQRRFATLQNELQSSLDAQKESTGVTTLRQRRKPVFHLSHEERVQHRNIKDLKLAFSEFYLSLILLQNYQNLNFTGFRKILKKHDKILETSRGADWRVAHVEVAPFYTCKKINQLISETEAVVTNELEDGDRQKAMKRLRVPPLGAAQPAPAWTTFRVGLFCGIFIVLNITLVLAAVFKLETDRSIWPLIRIYRGGFLLIEFLFLLGINTYGWRQAGVNHVLIFELNPRSNLSHQHLFEIAGFLGILWCLSLLACFFAPISVIPTYVYPLALYGFMVFFLINPTKTFYYKSRFWLLKLLFRVFTAPFHKVGFADFWLADQLNSLSVILMDLEYMICFYSLELKWDESKGLLPNNSEESGICHKYTYGVRAIVQCIPAWLRFIQCLRRYRDTKRAFPHLVNAGKYSTTFFMVTFAALYSTHKERGHSDTMVFFYLWIVFYIISSCYTLIWDLKMDWGLFDKNAGENTFLREEIVYPQKAYYYCAIIEDVILRFAWTIQISITSTTLLPHSGDIIATVFAPLEVFRRFVWNFFRLENEHLNNCGEFRAVRDISVAPLNADDQTLLEQMMDQDDGVRNRQKNRSWKYNQSISLRRPRLASQSKARDTKVLIEDTDDEANT [XPR1]”: in the series with HeLa Kyoto [1], the “solubility in G1/S (log2)” value was -0.193. Also, the figures for the melting temperature in the series on HeLa Kyoto [2] (cell cycle stage: G1/S) and in the series with HeLa Kyoto [2] (cell cycle stage: mitosis) were 52.2 °C and 51.1 °C, respectively. The “solubility change mitosis (log2)” value in the series on HeLa Kyoto [3] is -0.121. The thermal stability score with HeLa Kyoto [4] (setting [5]) was -0.783; in the series with HeLa Kyoto [4] (cell cycle stage: mitosis), -1.57.

For “MKGLYFQQSSTDEEITFVFQEKEDLPVTEDNFVKLQVKACALSQINTKLLAEMKMKKDLFPVGREIAGIVLDVGSKVSFFQPDDEVVGILPLDSEDPGLCEVVRVHEHYLVHKPEKVTWTEAAGSIRDGVRAYTALHYLSHLSPGKSVLIMDGASAFGTIAIQLAHHRGAKVISTACSLEDKQCLERFRPPIARVIDVSNGKVHVAESCLEETGGLGVDIVLDAGVRLYSKDDEPAVKLQLLPHKHDIITLLGVGGHWVTTEENLQLDPPDSHCLFLKGATLAFLNDEVWNLSNVQQGKYLCILKDVMEKLSTGVFRPQLDEPIPLYEAKVSMEAVQKNQGRKKQVVQF [CRYZL1]”, the “solubility in G1/S (log2)” value in the series with HeLa Kyoto [1] turned out to be 0.11. Besides, the melting temperature came to 57 °C in the series with HeLa Kyoto [2] (cell cycle stage: G1/S) and 56.9 °C in the series with HeLa Kyoto [2] (cell cycle stage: mitosis). For the same sequence, the “solubility change mitosis (log2)” value in the series with HeLa Kyoto [3] is -0.249. For the same sequence, the results for the thermal stability score with HeLa Kyoto [4] (setting [5]) and in the series on HeLa Kyoto [4] (cell cycle stage: mitosis) were 0.0481 and -1.74, respectively.

Consider “MKGSRIELGDVTPHNIKQLKRLNQVIFPVSYNDKFYKDVLEVGELAKLAYFNDIAVGAVCCRVDHSQNQKRLYIMTLGCLAPYRRLGIGTKMLNHVLNICEKDGTFDNIYLHVQISNESAIDFYRKFGFEIIETKKNYYKRIEPADAHVLQKNLKVPSGQNADVQKTDN [NAA50]”, for which the “solubility in G1/S (log2)” value with HeLa Kyoto [1] was 0.325. In addition, the melting temperature was found to be 53.1 °C with HeLa Kyoto [2] (cell cycle stage: G1/S) and 53.8 °C in the series on HeLa Kyoto [2] (cell cycle stage: mitosis). Moreover, the “solubility change mitosis (log2)” value in the series on HeLa Kyoto [3] was -0.0822. Besides, the thermal stability score in the series on HeLa Kyoto [4] (setting [5]) is 0.726; in the series on HeLa Kyoto [4] (cell cycle stage: mitosis), -0.495.
